Our source for the response values is paper PMC10561363.

For the assay, the target named is glutathione S-transferase (GST) fused to the C-terminus of SERT. Nature of the assay: GST pull-down, immunoblot densitometry. The settings on record: whole-cell lysates of transfected HEK-293 cells; n = 3; parent: est. 3.1; read off a plot. Background: Immunoblotting shows a protein as a band on a membrane.

“YFP-tagged human MAD2, wild type (from UniProt Q13257) R133A”: the response came out at 2.1 a.u.
